Publication PMC4150794, “Homodimerization of RBPMS2 through a new RRM-interaction motif is necessary to control smooth muscle plasticity” (Nucleic Acids Research, 2014)

Biological target: the molecule itself
Experiment: SEC-MALS; Superdex 75 10/300, 20 mM Tris-HCl pH 8, 300 mM NaCl; loaded at 2 mg/ml (RBPMS2-Nter) or 4 mg/ml (RBPMS2-Nter-L49E); monomer to dimer

B1: RBPMS2-Nter (human RBPMS2 residues 27-117, RRM domain) (domain or fragment)
chain: not shown
notes: 15N- or 15N/13C-labelled for NMR; also called pET22-RBPMS2-Nter; RRM domain of RBPMS2; source: E. coli BL231DE3 (so in the source), purified (His Trap FF)
stoichiometry N: 2
